In publication PMC3632419:
Changes are numbered by the printed parent chain. Names may count otherwise.

B1: β-lactam synthetase (βLS) (Streptomyces clavuligerus) (protein)
chain: MGAPVLPAAFGFLASARTGGGRAPGPVFATRGSHTDIDTPQGERSLAATLVHAPSVAPDRAVARSLTGAPTTAVLAGEIYNRDELLSVLPAGPAPEGDAELVLRLLERYDLHAFRLVNGRFATVVRTGDRVLLATDHAGSVPLYTCVAPGEVRASTEAKALAAHRDPKGFPLADARRVAGLTGVYQVPAGAVMDIDLGSGTAVTHRTWTPGLSRRILPEGEAVAAVRAALEKAVAQRVTPGDTPLVVLSGGIDSSGVAACAHRAAGELDTVSMGTDTSNEFREARAVVDHLRTRHREITIPTTELLAQLPYAVWASESVDPDIIEYLLPLTALYRALDGPERRILTGYGADIPLGGMHREDRLPALDTVLAHDMATFDGLNEMSPVLSTLAGHWTTHPYWDREVLDLLVSLEAGLKRRHGRDKWVLRAAMADALPAETVNRPKLGVHEGSGTTSSFSRLLLDHGVAEDRVHEAKRQVVRELFDLTVGGGRHPSEVDTDDVVRSVADRTARGAA
B2: β-lactam synthetase (βLS) (Streptomyces clavuligerus; V446G) (protein)
chain: B1 chain with V446G
B3: β-lactam synthetase (βLS) (Streptomyces clavuligerus; V446A) (protein)
chain: B1 chain with V446A
B4: β-lactam synthetase (βLS) (Streptomyces clavuligerus; H447A) (protein)
chain: B1 chain with H447A

Assays:
Experiment in all cases: coupled-enzyme assay of AMP release
Assay type in all cases: biochemical, Streptomyces clavuligerus
Conditions in all cases: ATP as co-substrate
[1] = substrate: C[C@@H](CN[C@@H](CCCNC(=N)N)C(=O)O)C(=O)O
[2] = substrate: C[C@H](CN[C@@H](CCCNC(=N)N)C(=O)O)C(=O)O
[3] = substrate: N=C(N)NCCC[C@H](NCCC(=O)O)C(=O)O

Protein | Km [1] [µM] | kcat [1] [s⁻¹] | Km [2] [µM] | kcat [2] [s⁻¹] | Km [3] [µM] | kcat [3] [s⁻¹]
B1 | 60 ± 10 | 0.023 ± 0.001 | 40 ± 10 | 0.032 ± 0.002 | 37 ± 1 | 0.87 ± 0.01
B2 | 1200 ± 100 | 0.13 ± 0.01 | 1900 ± 700 | 0.07 ± 0.002 | 610 ± 60 | 0.13 ± 0.01
B3 | 460 ± 40 | 0.34 ± 0.02 | 330 ± 20 | 0.014 ± 0.001 | 360 ± 20 | 0.28 ± 0.01
B4 | 80 ± 60 | 0.013 ± 0.001 |  |  |  | 
